Experimental data published in patent publication US20230235058A1 (OXFORD UNIVERSITY INNOVATION, published 2023).

T1: soluble cynomolgus macaque BTLA extracellular domain (BTLA K31-R151) (cynomolgus macaque)
T1 construct: also called cynomolgus BTLA; cyno BTLA
T1 chain: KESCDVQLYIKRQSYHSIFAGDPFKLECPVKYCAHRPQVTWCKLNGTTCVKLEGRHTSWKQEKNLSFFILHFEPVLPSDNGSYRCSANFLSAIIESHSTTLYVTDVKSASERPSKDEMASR

T2: human FcγR2B (human, UniProt P31994 43-217)
T2 construct: extracellular domain; also called hFcγR2B; CD32B
T2 sequence (looked up): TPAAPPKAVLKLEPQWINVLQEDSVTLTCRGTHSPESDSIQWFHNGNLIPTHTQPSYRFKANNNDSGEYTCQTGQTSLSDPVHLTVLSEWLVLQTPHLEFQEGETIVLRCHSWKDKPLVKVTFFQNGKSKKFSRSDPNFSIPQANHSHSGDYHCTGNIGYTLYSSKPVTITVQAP

T3: human FcγR2A 131H (human, UniProt P12318 34-217)
T3 construct: extracellular domain
T3 sequence (looked up): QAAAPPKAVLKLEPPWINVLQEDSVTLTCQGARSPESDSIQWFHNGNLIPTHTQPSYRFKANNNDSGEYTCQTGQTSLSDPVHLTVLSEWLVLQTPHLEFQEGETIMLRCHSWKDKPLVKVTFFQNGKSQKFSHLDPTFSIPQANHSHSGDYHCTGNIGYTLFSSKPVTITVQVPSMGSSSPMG

T4: human FcγR2A 131R (human, UniProt P12318 34-217)
T4 construct: extracellular domain
T4 sequence (looked up): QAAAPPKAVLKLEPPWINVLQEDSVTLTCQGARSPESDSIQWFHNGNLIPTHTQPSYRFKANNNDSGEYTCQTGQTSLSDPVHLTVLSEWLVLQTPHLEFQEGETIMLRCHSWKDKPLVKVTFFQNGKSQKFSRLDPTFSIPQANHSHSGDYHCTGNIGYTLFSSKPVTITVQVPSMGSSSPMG


How the values were obtained:
[1] = target: chimeric BTLA of humanised-BTLA mice (human extracellular region, murine transmembrane and signaling … (human; mouse, UniProt Q7TSA3 184-306, limits assumed); assay: cell-based or functional assay
[2] = target: full length human BTLA expressed on cells (human, UniProt Q7Z6A9 31-289); assay: cell-based or functional assay
[3] = target: T1, soluble cynomolgus macaque BTLA …; assay: SPR 37C, mAb captured, BTLA ECD analyte;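 further: Anti-BTLA mouse antibodies captured on a sensor chip via polyclonal anti-mouse IgG, isotype control antibody in reference channel, rates fitted after reference and blank subtraction to derive Kd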
Procedure: (§1) Mouse antibody capture kit (GE Healthcare) was used to coat a Series S CMS Sensor Chip (GE Healthcare) with polyclonal anti-mouse IgG. Anti-BTLA antibody was then captured onto the biosensor surface and a negative control antibody (clone Mopc21; Biolegend) captured in the reference channel. […] Association and dissociation rates were fitted using BiaEvaluation Software (GE Healthcare) after reference and blank subtractions, and dissociation constants were calculated (FIG. 1b).

[4] = target: T5, monomeric soluble human BTLA extracellular domain (BTLA K31-R151) (human, UniProt Q7Z6A9 31-151); assay: SPR 37C, mAb captured, BTLA ECD analyte;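 further: Anti-BTLA mouse antibodies captured on a sensor chip via polyclonal anti-mouse IgG, isotype control antibody in reference channel, rates fitted after reference and blank subtraction to derive Kd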
T5 construct: also called hBTLA; monomeric BTLA
Procedure: as §1

[5] = target: T1, soluble cynomolgus macaque BTLA …; assay: SPR Biacore 8K 37C, single cycle kinetics;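 further: antibody captured on sensor chip, soluble BTLA extracellular domain flowed over at several concentrations in HBS-EP pH 7.4, rates fitted after subtracting isotype-control reference channel and blank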
Procedure: (§2) The binding affinity and kinetics of humanised BTLA agonist antibodies to human or cynomolgus BTLA were determined by surface plasmon resonance using the Biacore 8K (GE Healthcare). […] Anti-BTLA antibody was then captured onto the biosensor surface and a negative control antibody (human IgG1k isotype control; Sino Biological cat #HG1K) captured in the reference channel. Various concentrations of monomeric soluble human BTLA extracellular domain (BTLA^K31-R151, produced recombinantly in house) or soluble cynomolgus macaque BTLA extracellular domain (BTLA^K31-R151, produced recombinantly in house) were then injected over the immobilized antibodies in the buffer HBS-EP (GE Healthcare, cat #BR100669), pH 7.4 (HBS-P) at 37° C., in a single cycle kinetics analysis.

[6] = target: T5, monomeric soluble human BTLA …; assay: SPR Biacore 8K 37C, single cycle kinetics;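 further: antibody captured on sensor chip, soluble BTLA extracellular domain flowed over at several concentrations in HBS-EP pH 7.4, rates fitted after subtracting isotype-control reference channel and blank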
Procedure: as §2

human FcγR2B = target: T2, human FcγR2B; assay: SPR 37C, steady state;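 further: fc variants captured on chip-bound human BTLA ectodomain, recombinant FcγR ectodomains injected as analyte at varied concentrations, double-referenced equilibrium binding fitted to Langmuir model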
human FcγR2A 131H = target: T3, human FcγR2A 131H; assay: SPR 37C, steady state;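 further: fc variants captured on chip-bound human BTLA ectodomain, recombinant FcγR ectodomains injected as analyte at varied concentrations, double-referenced equilibrium binding fitted to Langmuir model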
human FcRn = target: T6, human FcRn (human, UniProt P55899 24-297; P61769 21-119, limits assumed, biotinylated); assay: SPR, pH6.0
T6 construct: bought; also called FcRn pH6
Procedure: For the high affinity FcR interactions (FcγR1A, and also FcRn assessed at pH6.0) the binding was assessed in a kinetic analysis with antibody as analyte. […] Reference flow cell 1 was left empty in all channels. Purified antibody was then injected at a single concentration and on/off rates calculated by curve fitting on BiaEvaluation software. […] IgG Fc has two binding sites for FcRn so this assessment performed with FcRn immobilised at high density provides an avidity estimate for the interaction rather than a true KD.

human FcγR3A 158V = target: T7, human FcγR3A 158V (human, UniProt P08637 17-208); assay: SPR 37C, steady state;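 further: fc variants captured on chip-bound human BTLA ectodomain, recombinant FcγR ectodomains injected as analyte at varied concentrations, double-referenced equilibrium binding fitted to Langmuir model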
T7 construct: extracellular domain

human FcγR2A 131R = target: T4, human FcγR2A 131R; assay: SPR 37C, steady state;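 further: fc variants captured on chip-bound human BTLA ectodomain, recombinant FcγR ectodomains injected as analyte at varied concentrations, double-referenced equilibrium binding fitted to Langmuir model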
Wherever AntiCD3/CD28 (CD4 T cell proliferation) repeat 1 is given: test concentration or dose not given here.
Wherever AntiCD3/CD28 (CD4 T cell proliferation) repeat 2 is given: test concentration or dose not given here.
Wherever AntiCD3/CD28 (CD69+ CD4 T cells) repeat 1 is given: test concentration or dose not given here.
Wherever AntiCD3/CD28 (CD69+ CD4 T cells) repeat 2 is given: test concentration or dose not given here.
Wherever MLR (CD4 T cell proliferation) repeat 1 is given: test concentration or dose not given here.
Wherever MLR (CD4 T cell proliferation) repeat 2 is given: test concentration or dose not given here.
Wherever T cell reporter (NFκB signaling) is given: test concentration or dose not given here.

Chain of chimeric BTLA of humanised-BTLA mice (human extracellular region, murine transmembrane and signaling … (Q7TSA3 other isoform, or with tags, fused parts or gaps mutant limits assumed): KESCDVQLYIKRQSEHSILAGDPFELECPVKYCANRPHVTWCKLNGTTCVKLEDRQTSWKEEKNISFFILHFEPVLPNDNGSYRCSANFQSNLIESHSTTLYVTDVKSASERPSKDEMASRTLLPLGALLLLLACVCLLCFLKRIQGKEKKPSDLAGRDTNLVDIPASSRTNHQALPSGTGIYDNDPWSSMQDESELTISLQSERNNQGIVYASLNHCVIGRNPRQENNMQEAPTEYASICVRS
T7 sequence (P08637 17-208 F176V): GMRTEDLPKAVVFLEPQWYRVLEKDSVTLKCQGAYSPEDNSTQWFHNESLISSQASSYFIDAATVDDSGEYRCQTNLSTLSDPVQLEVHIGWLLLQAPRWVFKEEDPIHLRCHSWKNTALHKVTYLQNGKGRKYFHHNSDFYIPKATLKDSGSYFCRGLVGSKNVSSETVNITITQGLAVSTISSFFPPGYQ

Binder | AntiCD3/CD28 (CD4 T cell proliferation) repeat 1 [1] | AntiCD3/CD28 (CD4 T cell proliferation) repeat 2 [1] | AntiCD3/CD28 (CD69+ CD4 T cells) repeat 1 [1] | AntiCD3/CD28 (CD69+ CD4 T cells) repeat 2 [1] | MLR (CD4 T cell proliferation) repeat 1 [1] | MLR (CD4 T cell proliferation) repeat 2 [1] | T cell reporter (NFκB signaling) [2] | Kd [3] | other results
14D4 (antibody, IgG1, V domains shown, mIgG1) VH: QVQLQQPGAELVKPRASVKLSCKASGYTFTSYWMHWVKQRPGQGLEWIGMIHPNNGIPNYNEKFKSKATLTVDKSSTTAYMQLSSLTSEDSAVYHCAREGYYGSEGYFDVWGTGTTVTVSS VL: QIVLTQSPAIMSASPGEKVTMTCSASSSISYIHWYQQKPGTSPKRWIYDTSKLASGVPARFSGSGSGTSYSLTISSMEAEDAATYYCHQRSTYPYTFGGGTKLEIK | 24 % inhibition | 29 % inhibition | 43 % inhibition | 52 % inhibition | 39 % inhibition | 26 % inhibition | 16 % inhibition | 0.00183 µM | 
1H6 (antibody, IgG1, V domains shown, mIgG1) VH: EVQLQQSVAELVRPGASVKLSCTASGFNIKNTYMHWVKQRPEQGLEWIGRIDPANGNTKYDPKFQGKATITADTSSNTAYVQLSSLTSEDTAIYYCALTYYGSSQHYFDYWGQGTTLTVSS VL: not shown | 26 % inhibition | 19 % inhibition | 47 % inhibition | 53 % inhibition | 31 % inhibition | 16 % inhibition | 26 % inhibition | 0.00608 µM | 
3E8 (antibody, IgG1, V domains shown, mIgG1; also called clone 3E8) VH: QVQLQQSGAELARPGASVRLSCKASGYTFTSYAIRWVKQRTGQGLEWIGEIYPRSGNTYYNENFKGKATLTADKSSSTAYMELRSLTSEDSAVYFCARSGGASYTMDYWGQGTSVTVSS VL: not shown | 27 % inhibition | 35 % inhibition | 52 % inhibition | 64 % inhibition | 43 % inhibition | 35 % inhibition | 30 % inhibition | 0.607 µM | Kd [4]: 0.112 µM; koff [4]: 0.0608 s⁻¹; kon [4]: 543000 M⁻¹ s⁻¹
Engineered humanised 6.2 (Variant A) (antibody, V domains shown) VH: EVQLVESGGGLVKPGGSLRLSCAASGFTLSSYGMSWVRQAPGKGLEWVASIRSEGQTYYPDSVKGRFTISRDNAKNTLYLQMSSLRAEDTAVYYCTRGGYYGSSPYYWGQGTTVTVSS VL: DIVMTQSPLSLPVTPGEPASISCKSSQSLLYSSNQKNYLAWYQQKPGQSPKLLIYWASTRESGVPDRFSGSGSGTDFTLKISRVEAEDVGVYYCQQYYNYLTFGGGTKVEIKR |  |  |  |  |  |  |  |  | Kd [5]: 0.695 µM; koff [5]: 0.0507 s⁻¹; kon [5]: 72900 M⁻¹ s⁻¹; Kd [6]: 0.0109 µM; koff [6]: 0.00756 s⁻¹; kon [6]: 694000 M⁻¹ s⁻¹
16H2 (antibody, IgG1, V domains shown, mIgG1) VH: EVQLQQSGPELVQPGASVKISCKASGYTFTDYYMIWVKQSHGKSLEWIGNINPNNGGTTYNQKFKGKATLTVDKSSSTAYMGLPSLTSEDSAVYYCARGGLRPLYFDYWGQGTTLTVSS VL: NIVMTQSPKSMSMSVGERVTLSCKASENVDTYVSWYQQKPEQSPKLLIYGASNRYTGVPDRFTGSGSATDFTLTISSVQAEDLADYHCGQSYSYPLTFGAGTKLELI | 11 % inhibition | 23 % inhibition | 51 % inhibition | 60 % inhibition | 40 % inhibition | 26 % inhibition | 29 % inhibition | 0.16 µM | 
8C4 (antibody, IgG1, V domains shown, mIgG1) VH: DVQLQESGPGMVKPSQSLSLTCTVTGYSITSGYDWHWIRHFPGNKLEWMGYISYSGSTNYNPSLKSRISITHDTSKNHFFLKLNSVTTEDTATYYCARGTPVVAEDYFDYWGQGTTLTVSS VL: QAVVTQESALSTSPGETVTLTCRSSTGAVTTSNYANWVQEKPDHLFTGLIGATNNRAPGVPARFSGSLIGDKAALTITGAQTEDEAIYFCALWYSNHLVFGGGTKLTVLG | 12 % inhibition | 4 % inhibition | 29 % inhibition | 29 % inhibition | 42 % inhibition | -2 % inhibition | 21 % inhibition | 0.161 µM | 
humanised 2.8.6 hIgG1 delta ab P238D (antibody) chain 1: QVTLKESGPALVKPTQTLTLTCTVSGFSLTTYGVHWIRQPPGKALEWLGVMWPGGRTSYNPSLKSRLTITKDNSKSQVVLTMTNMDPVDTATYYCVRGDYEYDYYAMDYWGQGTLVTVSSASTKGPSVFPLAPSSKSTSGGTAALGCLVKDYFPEPVTVSWNSGALTSGVHTFPAVLQSSGLYSLSSVVTVPSSSLGTQTYICNVNHKPSNTKVDKKVEPKSCDKTHTCPPCPAPPVAGDSVFLFPPKPKDTLMISRTPEVTCVVVDVSHEDPEVKFNWYVDGVEVHNAKTKPREEQYNSTYRVVSVLTVLHQDWLNGKEYKCKVSNKGLPSSIEKTISKAKGQPREPQVYTLPPSRDELTKNQVSLTCLVKGFYPSDIAVEWESNGQPENNYKTTPPVLDSDGSFFLYSKLTVDKSRWQQGNVFSCSVMHEALHNHYTQKSLSLSP chain 2: EIVLTQSPATLSLSPGERATLSCRASSSVSYMHWYQQKPGQAPRPLIYATSNRATGIPARFSGSGSGTDYTLTISSLEPEDFAVYYCHQWSSNPYTFGQGTKLEIKRTVAAPSVFIFPPSDEQLKSGTASVVCLLNNFYPREAKVQWKVDNALQSGNSQESVTEQDSKDSTYSLSSTLTLSKADYEKHKVYACEVTHQGLSSPVTKSFNRGEC |  |  |  |  |  |  |  |  | Kd (human FcγR2B): 876 µM; Kd (human FcγR2A 131H): 771 µM
humanised 2.8.6 hIgG1 delta ac P238D (antibody) chain 1: QVTLKESGPALVKPTQTLTLTCTVSGFSLTTYGVHWIRQPPGKALEWLGVMWPGGRTSYNPSLKSRLTITKDNSKSQVVLTMTNMDPVDTATYYCVRGDYEYDYYAMDYWGQGTLVTVSSASTKGPSVFPLAPSSKSTSGGTAALGCLVKDYFPEPVTVSWNSGALTSGVHTFPAVLQSSGLYSLSSVVTVPSSSLGTQTYICNVNHKPSNTKVDKKVEPKSCDKTHTCPPCPAPPVAGGDSVFLFPPKPKDTLMISRTPEVTCVVVDVSHEDPEVKFNWYVDGVEVHNAKTKPREEQYNSTYRVVSVLTVLHQDWLNGKEYKCKVSNKGLPSSIEKTISKAKGQPREPQVYTLPPSRDELTKNQVSLTCLVKGFYPSDIAVEWESNGQPENNYKTTPPVLDSDGSFFLYSKLTVDKSRWQQGNVFSCSVMHEALHNHYTQKSLSLSP chain 2: EIVLTQSPATLSLSPGERATLSCRASSSVSYMHWYQQKPGQAPRPLIYATSNRATGIPARFSGSGSGTDYTLTISSLEPEDFAVYYCHQWSSNPYTFGQGTKLEIKRTVAAPSVFIFPPSDEQLKSGTASVVCLLNNFYPREAKVQWKVDNALQSGNSQESVTEQDSKDSTYSLSSTLTLSKADYEKHKVYACEVTHQGLSSPVTKSFNRGEC |  |  |  |  |  |  |  |  | avidity (FcRn pH6) (human FcRn): 14.2 nM; Kd (human FcγR3A 158V): 1410 µM; Kd (human FcγR2B): 1170 µM; Kd (human FcγR2A 131R): 399 µM

Second part, led by results:

AntiCD3/CD28 (CD4 T cell proliferation) repeat 1 [1] | AntiCD3/CD28 (CD4 T cell proliferation) repeat 2 [1] | AntiCD3/CD28 (CD69+ CD4 T cells) repeat 1 [1] | AntiCD3/CD28 (CD69+ CD4 T cells) repeat 2 [1] | MLR (CD4 T cell proliferation) repeat 1 [1] | MLR (CD4 T cell proliferation) repeat 2 [1] | T cell reporter (NFκB signaling) [2] | Kd [3] | Binder | other results
11 % inhibition | 19 % inhibition | 35 % inhibition | 30 % inhibition | 12 % inhibition | 10 % inhibition | 29 % inhibition | 0.168 µM | 26B1 (antibody, IgG1, V domains shown, mIgG1) VH: EVQLQQSGPVLVKPGASVKMSCKASGYTFTDYYLNWVKQSHGKSLEWIGLIDPYNGGSSCNQKFKGKATLTVDKSSSTAYMDLNSLTSEDSAVYYCARGNAMDYWGQGTSVTVSS VL: DIVMTQSHKFMSTSVGDRVSITCKASQDVSTAVAWYQEKPGQSPKLLIYWASTRHTGVPDRFTGSGSGTDYILNISSVQAEDLALYYCQQHYIIPYMFGGGTKLEIK | 
13 % inhibition | 23 % inhibition | 52 % inhibition | 44 % inhibition | 23 % inhibition | 31 % inhibition | 22 % inhibition |  | 24H7 (antibody, IgG1, V domains shown, mIgG1) VH: QVQLQQSGAELVRPGASVTLSCKASGYTFTDYEIHWVKQTLVHGLEWIGPIDPDTGNTAYNQNLKGKAILTADKSSSTAYMELRSLTSEDSAVYYCTRGGYDSDWGFAYWGQGTLVTVSA VL: DIVMTQATPSVPVTPGESVSISCRSSKSLLHSNGNTFLFWFLQRPGQSPQLLIYRMSDLASGVPDRFSGSGSGTAFTLRISRVEAEDVGIYYCMQHLEYPFTFGSGTKLEIK | Kd [4]: 0.00066 µM; koff [4]: 0.00016 s⁻¹; kon [4]: 243000 M⁻¹ s⁻¹
